System: MS2 coat protein
Assay: apparent KD of MS2 coat protein; higher = weaker reporter binding
Details: Eterna round: R107
Summary of the method: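 Apparent KD per design is the median of normalised cluster binding-curve fits. Designed RNA switches transcribed on-chip from Illumina sequencing clusters were titrated with SNAP-549-labelled MS2 coat protein in twofold steps from 0.7 or 1.5 nM to 3 µM, with 0.8–1.5 h down to 10–20 min per step. Buffer: 100 mM Tris-HCl pH 7.5, 80 mM KCl, 4 mM MgCl2, without or with constant ligand.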

[1] = input ligand: theophylline 20 uM
[2] = input ligand: theophylline 2 mM
[3] = input ligand: tryptophan 2.4 mM

Row | Sequence | apparent KD of MS2 coat protein (input ligand: arginine 13.2 mM) | apparent KD of MS2 coat protein (input ligand: none) | apparent KD of MS2 coat protein [1] | apparent KD of MS2 coat protein [2] | apparent KD of MS2 coat protein [3]
1 | GUCCUCAGCCGAAGGAGCGCUAGAAGGUGACAUGAGGAUCACCCAUGUGUGUGAUGUGGCUAGCAGGUAGGUCGCGGAGAGGAUU [Exclusion - Arginine B (Freestyle 17)] | 107 nM | 98.6 nM | 157 nM | 127 nM | 78.8 nM
2 | GGCACAUAGUCGGCCGCCACUACUAACACCUCAGACAACAUGAGGAUCACCCAUGUUCCAGAGUGUAGGACCGGGACUAUGUGCC [Minonka] | 11.7 nM |  | 13.7 nM | 12.2 nM | 
3 | CUACAUUUGUAGAAACCGGUCAACAUUAUUCGAGGACCGGUACGGCCGCCACUCGUAUAUUUUAAUACAUGAGGAUCACCCAUGU [Tryptophan A 6] | 12.3 nM |  | 14.2 nM | 13.6 nM | 
4 | CACAUGAGGAUCACCCAUGUCUGAACUGAAGGAGCGCUAAAUAAGGCAGGUAGGUCGCGGAAUCCCGGGUGCAUAUGCACCCGGG [9.aB] | 14.6 nM | 32 nM | 30.8 nM | 26.3 nM | 20.9 nM
5 | UUAAUCUUGGUUGAAAACAAUUAAGCAGAAGGAGCGUGAUAAAACACAGGUAGGUCGCUGAAGGGAACAUGAGGAUCACCCAUGU [AstrosSSArgA#14] | 25.4 nM | 26.6 nM | 41.1 nM | 31.6 nM | 25.6 nM
6 | UUUAUUUAUUUAUUUAUUUAUUUAACAGAAGGAGCGUGGAUUAACACAGGUAGGUCGCUGACAUGAGGAUCACCCAUGUAUUAUU [SSAA #1] | 106 nM | 28.4 nM | 48 nM | 41.6 nM | 35.8 nM
7 | AUUGUGAAGUCGGCCGCCACUGCAUAGUUUAACCACAUGUAACAUGAGGAUCACCCAUGUAAUGACAGGACCGGGACAAUAGUAA [JR_SSTryptoB_Sub023] | 22.2 nM |  | 41.9 nM | 29.9 nM | 
8 | AACAUGAGGAUCACCCAUGUUUUAUGGGAUACCAGAGACGAAAGUCUCCCUUGGCAGCCCAAGCUGCUCCAUACGAAAGUAUGGU [Theophylline A 17] | 16 nM |  | 18.2 nM |  | 16.6 nM
9 | GUAAAGUAAAGAAGGAGCGUCGAAAAUGGGUAAACAUGAGGAUCACCCAUGUAAAGGGAACGACAGGUAGGUCGCUUUAUUUUAC [AstromonsSSArgB#17] | 86.7 nM | 199 nM | 223 nM | 284 nM | 189 nM
10 | ACCGCGGUAUCGGCCGCCACUUGUGGGUUAAAUCUGGUACAUGAGGAUCACCCAUGUGUCUCCUCGAGGACCGGGAUAGCGUGAC [Geaner] | 97.7 nM |  | 168 nM | 211 nM | 
11 | AAGACGGUCGGAAGGAGCGGUACAUGAGGAUCACCCAUGUACUCCUGGGCAUCCGUAGUGUGCCAGGUAGGUCGCCGAUUGCGGG [XArg-B14] | 12.8 nM | 12.8 nM | 22.9 nM | 16.6 nM | 15.3 nM
12 | UUUUUUAACAUGGCGUAUCGGAAAACCGAUACCAGUACAGAAAUGUACCCUUGGCAGCGGCGUUUUACAUGAGGAUCACCCAUGU [Ex Theophylline A 3] | 21.2 nM |  | 65 nM |  | 27.7 nM
13 | ACAUGAGGAUCACCCAUGUGUCCUCGAAAACGAGGACCGGUACGGCCGCCACUCGAAAUAAGCGACAAGCGAAAAGCUUGUCGCA [Mat - Exclusion - Trytophan A - D22] | 57.6 nM | 113 nM | 194 nM | 135 nM | 406 nM
14 | UGUCAGCGAAAGUUGACAUGUCUUACCGGUCGAGGACCGGUACGGCCGCCACUCGAUCACUCGCACAUGAGGAUCACCCAUGUCG [SS Tryp A #20] | 11.7 nM |  | 14.5 nM | 13.9 nM | 
15 | CGCGUCCCGGACGAUACCAGAUAUGAGCGACACAUGAGGAUCACCCAUGUCAAUCAUGAGAUCCCUUGGCAGCGUUUGCACAACU [theeternabot_sameState_MS2_Theo_B_8] | 81.2 nM |  | 210 nM |  | 183 nM
16 | AUGCAUAUCAGAAGGAGCGUCUUUAACAUGAGGAUCACCCAUGUAACAUUGAAUUCGAUGAGACAGGUAGGUCGCUGAAUAGUAA [SS-ArgB24] | 27.5 nM | 33.7 nM | 39.3 nM | 32.8 nM | 31.2 nM
17 | UCCAUCGGCGGAAGCCGAUGGUUUACAGAAGGAGCGUGGAUUAACACAGGUAGGUCGCUGGACAUGAGGAUCACCCAUGUGAUAG [SSAA #6] | 40.1 nM | 60.4 nM | 117 nM | 60.4 nM | 55 nM
18 | GACGCAUGAGUUGUAACAGCUCAUGGGUCGCGAGGACCGGUACGGCCGCCACUCGGCUGUACAUGAGGAUCACCCAUGUCAGGGU [#1 Same State - Tryptophan A Attempt #29 (HarryS)] | 24.7 nM | 346 nM | 1320 nM | 1310 nM | 451 nM
19 | AGAUGAGUCACGGCCGCCACUCUUAUCAGGAUCACCCAUGGUUGACAUGAGGAUCACCCAUGUAUGAGGACCGGGUGAUGAGCAU [XTryp B #1] | 13.7 nM |  | 15.9 nM | 15 nM | 

Row | Sequence | apparent KD of MS2 coat protein (input ligand: arginine 13.2 mM) | apparent KD of MS2 coat protein (input ligand: none) | apparent KD of MS2 coat protein [1] | apparent KD of MS2 coat protein [2] | apparent KD of MS2 coat protein [3]
20 | AUACACCUCGUCCAGGCAAUCUUUAGUGAUACCAGCUAACUCCGUGGCCCUUGGCAGCACAUGAGGAUCACCCAUGUGCGACAUC [Bioninen] | 10.2 nM |  | 13.4 nM |  | 11.6 nM
21 | UGGAUAAGGGUAAAUAGGAUAAGUACAGAAGGAGCGCGAAUAAACGCAGGUAGGUCGCUGGACAUGAGGAUCACCCAUGUAAAUG [Same State Arginine A GF 22] | 45.9 nM | 48.8 nM | 77.1 nM | 57.6 nM | 50 nM
22 | AUUUUUCUAUCAGAUACCAGACAACUCCAAACAUGAGGAUCACCCAUGUAUUGGGUGUUCGUCCCUUGGCAGCUGUUAAUGUUAA [JR_SSTheophyB_Sub003] | 24.6 nM |  | 18.1 nM |  | 16.9 nM
23 | AAACGCCACGGAAGGAGCGACAUGAGGAUCACCCAUGUAGUUUUGGCGGAUGCACCCUCCUGUCAGGUAGGUCGCCGUGCGAUAA [XArg-B26] | 32.6 nM | 35.8 nM | 71.8 nM | 68.5 nM | 33.4 nM
24 | GUCCACAGCCGAAGGAGCGCUAGAAGAUGACAUGAGGAUCACCCAUGUGUGUGGUGUGGCUAGCAGGUAGGUCGCGGAGUGGAUU [Exclusion - Arginine B (Freestyle 15)] | 39.7 nM | 30.5 nM | 59.3 nM | 39 nM | 26.1 nM
25 | CAGAACAUGAGGAUCACCCAUGUUAGGGAUACCAGCUCAGACAUGGGCCCUUGGCAGCUCUAUGGCUGACGAAAGUCAGCAUCUG [#16 SameState-TheophyllineA] | 70.5 nM | 41.7 nM | 874 nM | 3.01 nM | 42.5 nM
26 | AAAAUCCUCCAUGAGGAUCACCCAUGGGAAGGAGCGCCCGAAAGGGCAGGUAGGUCGCCCAUGAGGAUCACCCAUGGAACCUAAA [ArgAX 26 #DoubleMS2 #OpenEnded #AlternativeMS2] | 43.7 nM | 56.5 nM | 112 nM | 118 nM | 43.5 nM
27 | AGAUUCGACACGGCCGCCACUUGUGGUGGAUUAUCCAGUGUCGAACAUGAGGAUCACCCAUGUACAAGGACCGGGUGUUGAGUCU [XTryp B #19] | 53.3 nM |  | 79.3 nM | 96.3 nM | 
28 | AUAACAUGAGGAUCACCCAUGUAUUGGUUACGAGGACCGGUACGGCCGCCACUCGUAUUUUGGUGGUAUUUUGUAUAUAUGAUAA [JR_SSTryptoA_Sub018] | 26.6 nM |  | 32.3 nM | 36.5 nM | 
29 | AAAAUCCUACCUGAGGAUCACCCUGGUGAAGGAGCGCCCGAAAGGGCAGGUAGGUCGCACCUGAGGAUCACCCUGGUACCUAAAA [ArgAX 29 #DoubleMs2 #OpenEnded #AlternativeMS2] | 82.6 nM | 70.6 nM | 57.4 nM | 48.3 nM | 61.8 nM
30 | AGCCCUGUGCUAGAUACCAGCUACAUGAGGAUCACCCAUGUGCGUCAAGACUGACUGUGUAGCCCUUGGCAGCUACUCGCAUGUA [Exclusion - Theophylline B (Freestyle 4)] | 11.9 nM |  | 19 nM |  | 12.5 nM
31 | AUUCAUGGAAACAUGACAUAGGGAUCACUCCGAGGACCGGUACGGCCGCCACUCGCGAGGAGGCACAUGAGGAUCACCCAUGUUA [SS Tryp A #4] | 27 nM |  | 73.8 nM | 92.1 nM | 
32 | GGGCGAGUGGACCGGCGUGCUCCGCUCCGUCGAGGACCGGUACGGCCGCCACUCGACAUGAGGAUCACCCAUGUGCGAGCUCGCG [#1 Exclusion - Tryptophan A Attempt #14 (HarryS)] | 32.7 nM | 77.5 nM | 114 nM | 82.4 nM | 86 nM
33 | UUGACAUGAGGAUCACCCAUGUUAGCUGAAGGAGCGAGGUAGUACUCAGGUAGGUCGCAGAGAGCAGAGUUAGUUGUUCUCAUGU [X-ArgiA-ms2@4] | 21.5 nM | 19.1 nM | 28.5 nM | 23.3 nM | 18.6 nM
34 | GGAUAGGACACGGCCGCCACUAGCUAGGAUACUAGCAACAUUUCCUCGCAUGAGGAUCACCCAUGUAGGACCGGGUGUCCUAUCG | 159 nM | 462 nM | 638 nM | 495 nM | 484 nM
35 | CGGUGUAGGGUUAAUAGGCUGAGUACAGAAGGAGCGCGAAUAAACGCAGGUAGGUCGCUGGCGAACAUGAGGAUCACCCAUGUAU [Same State Arginine A GF 30] | 29.5 nM | 18.4 nM | 24 nM | 32 nM | 15.9 nM
36 | AUGGUAAGAACAUGAGGAUCACCCAUGUGACGAGGACCGGUACGGCCGCCACUCGUACCUUAGUCGUCGAACAGAGGAUUCAUGU [Trypt A-MS2@10] | 37.1 nM |  | 138 nM | 125 nM | 
37 | AACCGAGGCUAUCCUCUAAGACUAUGUGAUACCAGAAUAAUUUUAUUCCCUUGGCAGCAUGACAUGAGGAUCACCCAUGUCUCUU [SSTheo A #8] | 21 nM |  | 27.4 nM |  | 26 nM

Reference: the supplement of paper PMC9170038
